The target in test [1] is PP1c (type-1 protein phosphatase catalytic subunit, PP1c alpha). As to the kind of experiment: PP1c pull-down from extracts of cardiomyocytes co-infected with Ad-I-1 and AdPKCα wt, I-1 western blot quantified. On the technique in general: Immunoblotting shows a protein as a band on a membrane.
For test [2] the target is unchanged. Kind of test: PP1c pull-down from extracts of cardiomyocytes co-infected with Ad-I-1 and AdPKCα dn, I-1 western blot quantified.

For “Inhibitor-1 (I-1), expressed from adenovirus in neonatal rat cardiomyocyte cultures”, in test [1], the change in I-1 co-precipitated with PP1c (wildtype PKCα co-expressed, against I-1 + β-gal) stood at 50 % reduction. The change in I-1 co-precipitated with PP1c (dominant negative PKCα co-expressed, against I-1 + β-gal) in test [2] was greater than 70 % increase.

(Values after patent EP1908827A2.)
